Laboratory results from patent publication US20200079850A1.

What was measured:
[1] = molecular target: cynomolgus LAG3 expressed on the cell surface (293T or CHO cells) (cynomolgus monkey); assay: flow cytometry, 293T cells expressing cyno LAG3
[2] = molecular target: cynomolgus LAG3-Fc (accession # NC 022282.1) (cynomolgus monkey); assay: SPR (Biacore), antibody captured by anti-Flag, cyno LAG3-Fc as analyte, 25 C
cynomolgus LAG3-Fc (accession # NC 022282.1) (cynomolgus monkey), sequence (P18627 other isoform, or with tags, fused parts or gaps limits assumed, form in doubt): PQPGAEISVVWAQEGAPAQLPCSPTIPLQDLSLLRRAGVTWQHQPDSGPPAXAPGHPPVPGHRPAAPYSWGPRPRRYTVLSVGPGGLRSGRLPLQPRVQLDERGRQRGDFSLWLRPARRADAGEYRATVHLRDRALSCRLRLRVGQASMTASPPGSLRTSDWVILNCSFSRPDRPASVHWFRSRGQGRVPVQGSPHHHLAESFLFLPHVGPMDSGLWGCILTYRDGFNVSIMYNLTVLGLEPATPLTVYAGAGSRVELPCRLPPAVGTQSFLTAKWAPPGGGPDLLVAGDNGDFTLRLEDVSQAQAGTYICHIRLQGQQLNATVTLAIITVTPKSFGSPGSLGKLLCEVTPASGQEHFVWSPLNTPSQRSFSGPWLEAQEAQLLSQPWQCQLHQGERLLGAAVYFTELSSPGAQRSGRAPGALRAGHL

cynomolgus LAG3 expressed on the cell surface (293T or CHO cells) (cynomolgus monkey), sequence (P18627 other isoform, or with tags, fused parts or gaps limits assumed, form in doubt): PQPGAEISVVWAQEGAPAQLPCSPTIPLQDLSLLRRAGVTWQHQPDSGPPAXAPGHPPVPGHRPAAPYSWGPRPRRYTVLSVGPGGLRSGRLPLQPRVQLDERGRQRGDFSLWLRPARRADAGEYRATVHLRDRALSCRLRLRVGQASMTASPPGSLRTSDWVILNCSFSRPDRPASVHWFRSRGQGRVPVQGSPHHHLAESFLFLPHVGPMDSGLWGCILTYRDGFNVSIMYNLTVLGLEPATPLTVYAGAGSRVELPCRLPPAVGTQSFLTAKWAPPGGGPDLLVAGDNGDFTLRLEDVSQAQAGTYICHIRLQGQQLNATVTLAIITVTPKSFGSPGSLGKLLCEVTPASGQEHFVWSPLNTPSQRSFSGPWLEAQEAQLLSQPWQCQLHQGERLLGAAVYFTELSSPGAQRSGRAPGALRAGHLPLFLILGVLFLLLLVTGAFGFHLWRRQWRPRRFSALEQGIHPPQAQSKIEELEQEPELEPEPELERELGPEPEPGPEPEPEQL

Kd [1]: 4.5 nM | Kd [2]: 4.51 nM | koff [2]: 0.000641 s⁻¹
B1: 421.61.4.5G11 (antibody, V domains shown)
VH: EVQLQQSGAELVRSGASVKLSCTASGFNIKDYYMHWVKQRPEQGLEWIAWIDPENGDTEYAPKFQGRATLTADTSSNTAYLHLSSLTSEDTAVYYCNAPDALDYWGQGTSVTVSS
VL: not shown
